Measurements published in patent US20180111984A1 (Teva, published 2018).
Ends that are not written are not given here.

B1: human α-CGRP 1-36-COOH (peptide)
peptide: ACDTATCVTHRLAGLLSRSGGVVKNNFVPTNVGSKA-OH
modifications: ends and bridges not checked
notes: not C-terminally amidated; also called 1-36 (not amidated at the C-terminus)
B2: human α-CGRP 26-37 (peptide)
peptide: NFVPTNVGSKAF-NH2
B3: human α-CGRP 1-37 (WT) (peptide)
peptide: ACDTATCVTHRLAGLLSRSGGVVKNNFVPTNVGSKAF-NH2
modifications: cysteine pairing not given here
notes: also called full length human α-CGRP
B4: human β-CGRP (1-37) (peptide)
peptide: ACNTATCVTHRLAGLLSRSGGMVKSNFVPTNVGSKAF-NH2
modifications: cysteine pairing not given here
notes: also called human β (1-37); 1-37 of β-CGRP (WT)
B5: rat β-CGRP (1-37) (peptide)
peptide: SCNTATCVTHRLAGLLSRSGGVVKDNFVPTNVGSKAF-NH2
modifications: cysteine pairing not given here
notes: also called rat β (1-37)
B6: human α-CGRP 8-37 (peptide)
peptide: VTHRLAGLLSRSGGVVKNNFVPTNVGSKAF-NH2

molecular target: T1, antibody G1 Fab fragment; test: Biacore competition: 10 µM peptide with 50 nM G1 Fab over human α-CGRP chip
T1 construct: Fab expressed in E. coli; purified on Ni-NTA, tag not described
Description: Y axis represents percentage of binding blocked by the presence of the competing peptide compared with the binding in the absence of the competing peptide.
All these peptides are amidated at the C-terminus.

T1 sequence (VH, as listed by the source, chain 1 of 2): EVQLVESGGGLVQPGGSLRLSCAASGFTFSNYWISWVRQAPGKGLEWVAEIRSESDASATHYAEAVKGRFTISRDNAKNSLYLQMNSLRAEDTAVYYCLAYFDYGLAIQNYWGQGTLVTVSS
T1 sequence (VL, as listed by the source, chain 2 of 2): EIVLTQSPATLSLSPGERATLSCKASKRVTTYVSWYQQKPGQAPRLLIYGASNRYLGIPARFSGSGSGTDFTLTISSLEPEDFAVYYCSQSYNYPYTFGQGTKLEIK

In order of rising “percentage of binding blocked” value:
1. B1  ~40%
2. B2  100%
3. B3  100%
4. B4  100%
5. B5  100%
6. B6  100%
